The text below walks through data of article doi:10.1101/2023.03.17.533092 (bioRxiv, 2023).

Assay [1] concerns the target SARS-CoV-2 spike glycoprotein (S) (SARS-CoV-2 (Wuhan), UniProt P0DTC2).
The target of assay [2] is SARS-CoV-2 Wuhan S RBD, biotinylated (SARS-CoV-2 (Wuhan), UniProt P0DTC2, biotin (biotinylated; site not stated)).

B1: ADAH14 (VHH)
VHH: QVQLQESGGGLVQAGGSLRLSCAASGSYFFHALMGWFRQAPVKEREFVASITAVPGATYYRRCTDSVKGRFTISRDNAKNTVYLQMNSLKPEDTAVYYCALATHSNRHTPITYWGQGTQVTVSS
For the molecule B1, the binding result in assay [1] and in assay [2] was “binds” each time.

B2: ADAH15 (VHH)
VHH: QVQLQESGGGLVQAGGSLRLSCAASGTTYLAANMGWFRQAPGKEREFVAAITFFHNPTVYYADSVKGRFTISRDNAKNTVYLQMNSLKPEDTAVYYCAATVLVRDRIHFSHSIGIRYWGQGTQVTVSS
Turning to B2, the binding result in assay [1] and in assay [2] was “binds” each time.
